Assay results from US5595736.
Substitutions are numbered along the chain they refer to.

B1: mt-PA6-D (enzyme)
chain: SYQGNSDCYFGQGSAYRGTHSLTESGASCLPWNGSMILIGKVYTAQNPSAQALGLGKHNYCRNPDGDAKPWCHVLKNRRLTWEYCDVPSCSTCGLRQYSQPQFRIKGGLFADIASHPWQAAIFAKHRRSPGERFLCGGILISSCWILSAAHCFQERFPPHHLTVILGRTYRVVPGEEEQKFEVEKYIVHKEFDDDTYDNDIALLQLKSDSSRCAQESSVVRTVCLPPADLQLPDWTECELSGYGKHEALSPFYSERLKEAHVRLYPSSRCTSQHLLNRTVTDNMLCAGDTRSGGPQANLHDACQGDSGGPLVCLNDGRMTLVGIISWGLGCGQKDVPGVYTKVTNYLDWIRDNMRP
modifications: diglycosylated: alternate glycosylation consensus sequence at the amino acids surrounding position 33 (equivalent to amino acid 205 of t-PA) in Kringle 2, and the glycosylation consensus sequence within the Serine Protease domain
B2: mt-PA9 (enzyme)
chain: SYQDTRATCYEDQGISYRGTWSTAESGAECTNWNSSALAQKPYSGRRPDAIRLGLGNHNYCRNPDGDAKPWCHVLKNRRLTWEYCDVPSCSTCGLRQYSQPQFRIKGGLFADIASHPWQAAIFAKHRRSPGERFLCGGILISSCWILSAAHCFQERFPPHHLTVILGRTYRVVPGEEEQKFEVEKYIVHKEFDDDTYDNDIALLQLKSDSSRCAQESSVVRTVCLPPADLQLPDWTECELSGYGKHEALSPFYSERLKEAHVRLYPSSRCTSQHLLNRTVTDNMLCAGDTRSGGPQANLHDACQGDSGGPLVCLNDGRMTLVGIISWGLGCGQKDVPGVYTKVTNYLDWIRDNMRP
modifications: diglycosylated: obligatory glycosylation site located in the first exon of Kringle 1, and the site in the Serine Protease domain
B3: mt-PA6-E (enzyme)
chain: SYQGNSDCYFGQGSAYRGTHSLTESGASCLPWNSMILIGKVYTAQNGSAQALGLGKHNYCRNPDGDAKPWCHVLKNRRLTWEYCDVPSCSTCGLRQYSQPQFRIKGGLFADIASHPWQAAIFAKHRRSPGERFLCGGILISSCWILSAAHCFQERFPPHHLTVILGRTYRVVPGEEEQKFEVEKYIVHKEFDDDTYDNDIALLQLKSDSSRCAQESSVVRTVCLPPADLQLPDWTECELSGYGKHEALSPFYSERLKEAHVRLYPSSRCTSQHLLNRTVTDNMLCAGDTRSGGPQANLHDACQGDSGGPLVCLNDGRMTLVGIISWGLGCGQKDVPGVYTKVTNYLDWIRDNMRP
modifications: diglycosylated: alternate glycosylation consensus sequence at the amino acids surrounding position 48 (equivalent to amino acid 219 of t-PA) in Kringle 2 (claim 2: monoglycosylated at amino acid residue number 47), and the glycosylation consensus sequence within the Serine Protease domain
B4: Variant mt-PA6 (mt-PA6-V) (enzyme)
chain: B3 chain with Q12N, G47P
modifications: glycosylated at amino acids 276 and 12
B5: Primary mt-PA6 (mt-PA6-P) (enzyme)
chain: B3 chain with Q12N, G47P
modifications: glycosylated at amino acid 276 but not at amino acid 12

What follows are binders tested against Lysine (Lys)-Plasminogen.

Binder	ratio of the rates of Lys- to Glu-plasminogen activation in the presence of fibrin stimulator (Lys/Glu) (Lys/Glu (ratio of rates), single chain)
B1	3.3
B2	2
B3	2
B4	1.4
B5	1

What follows are binders tested against plasminogen.

Binder	plasminogenolytic activity (PAU/mg) (PAU/mg (single chain))
B1	189
B2	50
B3	59
B4	56
B5	87
